Measured values taken from patent US20250352589A1, “OXYTOCIN-MIMETIC COMPOSITIONS AND USES THEREOF” (INSTITUT NATIONAL DE LA SANTÉ ET DE LA RECHERCHE MÉDICALE, priority 2021, published 2025).

Legend:
human OT-R = target: T1, human OT-R (Homo sapiens, UniProt P30559); assay: Activation of OT-R by bacterial peptides: calcium release from HEK cells transfected with human OT-R; format: cell-based; conditions: OTR expressing HEK cells
T1 construct: expressed in transfected cells; host or cells: HEK cells
T1 sequence (P30559 1-389): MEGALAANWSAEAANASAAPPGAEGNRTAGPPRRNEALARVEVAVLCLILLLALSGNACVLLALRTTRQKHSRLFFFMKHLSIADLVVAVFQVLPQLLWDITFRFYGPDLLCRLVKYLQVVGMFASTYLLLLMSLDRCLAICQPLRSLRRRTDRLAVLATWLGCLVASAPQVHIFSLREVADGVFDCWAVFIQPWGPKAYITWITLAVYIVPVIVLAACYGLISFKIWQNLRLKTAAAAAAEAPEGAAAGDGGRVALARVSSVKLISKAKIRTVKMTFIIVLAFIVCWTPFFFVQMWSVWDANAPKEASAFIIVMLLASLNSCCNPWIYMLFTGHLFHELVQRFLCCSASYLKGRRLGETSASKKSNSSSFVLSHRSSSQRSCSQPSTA

[1] = system: non-transfected HEK cells; assay: Negative control: activation of non-transfected HEK cells; format: cell-based
Description: The activation of OT-R by bacterial peptides was analyzed by the measurement of calcium release from HEK cells transfected with human OT-R
As a negative control, no activation of non-transfected HEK cells with OT or bacterial peptides was observed.

anti-oxytocin antibodies = assay: Proteomic analysis: 2D gel and OT immunodetection (OT IgG) of bacterial proteomes; format: binding; conditions: 2D-immunoblotting, spots identified by mass spectrometry
Description: In this study, 14 bacteria-extracted proteomes were analyzed: (i) from 5 Bifidobacterium species grown in anaerobe conditions, (ii) from 5 Lactobacillus species grown in anaerobe culture conditions and (iii) from 4 aerotolerant Lactobacillus species grown in aerobe conditions. Each proteome analysis was performed in triplicate and was further separated in 3 fractions i.e. soluble (S), membrane (M), and residual (R) resulting in 9 samples/proteome). Each fraction was initially screened by western blot (WB) for the presence OT-like reactivity to validate it for further 2D-SDS-PAGE analysis. […] Finally, all fractions have been analyzed using 2D gel technique and OT immunodetection. 2D gel electrophoresis allowed to improve visibility of the less abundant proteins in a complex sample. Thereby, all samples were analyzed at least once with this method to scan optimally each proteome in the search for OT mimicry. […] The specificity for OT-like staining was controlled by pre-adsorption of OT-IgG with OT peptide.
All protein spots in silver nitrate staining gels corresponding to OT-like spots in the membrane were excised and analyzed by mass spectrometry

CC[C@H](C)[C@@H]1NC(=O)[C@H](Cc2ccc(O)cc2)NC(=O)[C@@H](N)CSSC[C@@H](C(=O)N2CCC[C@H]2C(=O)N[C@@H](CC(C)C)C(=O)NCC(N)=O)NC(=O)[C@H](CC(N)=O)NC(=O)[C@H](CCC(N)=O)NC1=O [OT, Oxytocin]
specific activation of OTR (human OT-R): specifically activated OTR
activation of non-transfected HEK cells [1]: no activation

B1: Prolable phosphoketolase (protein, listed as Bifidobacterium pseudolongum)
chain: MTNPVIGTPWQKLDRPVSEEAIEGMDKYWRVTNYMSIGQIYLRSNPLMKEPFTRDDVKHRLVGHWGTTPGLNFLLAHINRLIADHQQNTVFIMGPGHGGPAGTSQSYVDGTYTEYYPNITKDEAGLQKFFRQFSYPGGIPSHFAPETPGSIHEGGELGYALSHAYGAVMNNPSLFVPCIIGDGEAETGPLATGWQSNKLVNPRTDGIVLPILHLNGYKIANPTILARISDEELHDFFRGMGYHPYEFVAGFDNEDHMSIHRRFAELFETIFDEICDIKAAAQTDDMTRPFYPMLIFRTPKGWTCPKFIDGKKTEGSWRAHQVPLASARDTEEHFEVLKGWLESYKPEELFNADGSIKDDVTAFMPKGDLRIGANPNANGGVIREDLKLPELDQYEVTGVKEYGHGWGQVEAPRSLGAYCRDIIKNNPDSFRIFGPDETASNRLNATYEVTDKQWDNGYLSSLVDEHMAVTGQVTEQLSEHQCEGFLEAYLLTGRHGIWSSYESFVHVIDSMLNQHAKWLEATVREIPWRKPISSVNLLVSSHVWRQDHNGFSHQDPGVTSVLINKTFNNDHVTNIYFATDANMLLAISEKCFKSTNKINAIFAGKQPAPTWITLDEARAELEAGAAEWKWASNAENNDEVQVVLAAAGDVPTQEIMAASDALNKMGIKFKVVNVVDLLKLQSRENNDEALTDEEFTDLFTADKPVLFAYHSYAQDVRGLIYDRPNHDNFNVVGYKEQGSTTTPFDMVRVNDMDRYALQAAALKMIDADKYADKIDELNAFRQKAFQFAVDNGYDIPEFTDWVYPDVKVDETQMLSATAATAGDNE
modifications: Probable phosphoketolase
notes: protein expressed by Bifidobacterium pseudolongum subsp. globosum
immune cross-reaction with anti-oxytocin antibodies (anti-oxytocin antibodies): immune cross-react with anti-oxytocin antibodies

B2: Glutamine-fructose-6-phosphate aminotransferase (protein, listed as Lactobacillus plantarum)
chain: MCGIVGVTGKDSAVSILLNGLEKLEYRGYDSAGIYVNDQDGHDYLVKEKGRIDDLRKEVGEAVHGSTGIGHTRWATHGEPSVANAHPQVSADGRFYLVHNGVIENFEDLKQTYLSDVTFKSQTDTEVIVQLVDRFVTKEGLSTLAAFRKTLGLLGHSSYGFLLMDKEDPDTLYVAKNKSPLLIGVGEGFNVVCSDSLAMLDQTKDFLELHDGEIVVVKPDEIKITNQAGEPVERKPFHVDIDAAQADKGTYPFYMLKEIDEQPNVMRKLSQVYLNDAGDPIINDDLLTALKAADRLYIVAAGTSYHAGLVGAKLFESLANVPTEVHVSSEFAYNQPLLSAHPFFIFLTQSGETADSREVLLNVNDQHFPSLTITNVPNSTLSREATYTLLLHAGPEIAVASTKAYTAQIALQAILAKALGVAVDQPAATAFDVKQQLALVANGMQSLVDEKATFEKIAKSALLNTPNAFYIGRGLDYAVSLETALKLKEISYVQAEGFASGELKHGTIALIEKDTPVIGIITQKNTAGLTRSNLQEVAARGAKTVTIVTDSLAKDGDTVILPTVDERLTALLSVVPGQLLAYYTSLNKGLDVDKPRNLAKSVTVE
modifications: Glutamine-fructose-6-phosphate aminotransferase
notes: protein expressed by Lactobacillus plantarum
immune cross-reaction with anti-oxytocin antibodies (anti-oxytocin antibodies): immune cross-react with anti-oxytocin antibodies

B3: GMP synthase (protein, listed as Lactobacillus plantarum)
chain: MAKTDTASFDSILVLDFGSQYNQLITRRIRDFGVYSELLPNTITAEEIKARHPKGIIFSGGPNSVYDDGAFRVDPEIFKLGLPILGICYGMQLMTYTLAGGKVESADNREYGKANIDVTSDSATLFKDTPAEQSVWMSHGDLVTQAPDGFDVVATSKNCPIAAIQDVDRKLYGIQFHAEVRNTDYGNDILRHFAFDVCQAEANWSMDDFIDMQIEKIRAEVGDKKVLLGLSGGVDSSVVGVLLHKAIGTQLTSIFVDHGLLRKGEADQVMASLEGKFGLNIIKVDAKDRFLSKLAGVSDPERKRKIIGNEFIQVFDEEATKLNGMEFLAQGTLYTDVIESGTSTAQTIKSHHNVGGLPEDMQFKLIEPLRTLFKDEARELGEKLGMPSDLVWRQPFPGPGLGIRVIGEITEDKLEIVRDSDFILRDEIKKAGLDREIWQYFTVLPGIKSVGVMGDGRTYDYTVGIRAVTSIDGMTADFARIPWDVLQKISVRIVNEVDHVNRIVYDVTSKPPSTIEWE
modifications: GMP synthase
notes: as for B2
immune cross-reaction with anti-oxytocin antibodies (anti-oxytocin antibodies): immune cross-react with anti-oxytocin antibodies

B4: Phosphoketolase (protein, listed as Bifidobacterium dentium)
chain: MTSPVIGTPWKKLNAPVSEEAIEGVDKYWRAANYLSIGQIYLRSNPLMKEPFTREDVKHRLVGHWGTTPGLNFLIGHINRLIADHQQNTVIIMGPGHGGPAGTAQSYLDGTYTEYFPNITKDEAGLQKFFRQFSYPGGIPSHYAPETPGSIHEGGELGYALSHAYGAVMNNPSLFVPAIVGDGEAETGPLATGWQSNKLVNPRTDGIVLPILHLNGYKIANPTILSRISDEELHEFFHGMGYEPYEFVAGFDNEDHLSIHRRFAELFETVFDEICDIKAAAQTDDMTRPFYPMIIFRTPKGWTCPKFIDGKKTEGSWRSHQVPLASARDTEAHFEVLKNWLESYKPEELFDANGAVKPEVTAFMPTGELRIGENPNANGGRIREELNLPALEDYEVKEVAEYGHGWGQLEATRRLGVYTRDIIKNNPDSFRIFGPDETASNRLQAAYDVTNKQWDAGYLSAQVDEHMAVTGQVTEQLSEHQMEGFLEAYLLTGRHGIWSSYESFVHVIDSMLNQHAKWLEATVREIPWRKPISSMNLLVSSHVWRQDHNGFSHQDPGVTSVLLNKCFNNDHVIGIYFPVDSNMLLAVAEKCYKSTDMINAIIAGKQPAATWLTLDEARAELEKGAAEWEWASTAKSNDEAQIVLASAGDVPAQEIMAAADKLDAMGIKFKVVNVVDLVKLQSTKENDEAISDADFADLFTEDKPVLFAYHSYARDVRGLIYDRPNHDNFNVHGYEEQGSTTTPYDMVRVNNIDRYELVAEALRMIDADKYADKIDELEAFRKEAFQFAVDNGYDHPDYTDWVYSGVNTNKQGAVSATAATAGDNE
modifications: phosphoketolase
notes: protein expressed by Bifidobacterium dentium
immune cross-reaction with anti-oxytocin antibodies (anti-oxytocin antibodies): immune cross-react with anti-oxytocin antibodies

B5: Phosphoglycerate kinase (protein, listed as Bifidobacterium dentium)
chain: MKTLKDLGDLKGKRVLVRADFNVPLDGTTITDDGRIKAALPTIKALREEGAKVILMAHLGRPKGKVVPELSLAPVATRLGELLGVEVPLASDTYGEDAQAKVAAMNDGDVVLLQNVRFNPEETSKDPEERAAYAKKIAALGEAFVSDGFGVVHRAQGSNYDVAADLPAAAGLLVEKEVKALSRATVDPERPLTVVLGGSKVSDKLGVIENLLDKADRLVIGGGMVYTFLKAKGLEVGTSLLEEDQVETVKGYIERAEKNGVELVLPTDIVVNPVFPKSDEDIAPEVVAADAIPADKMGLDIGPDSQKLFHDKIVDSKTVVWNGPMGVFEVPAFAAGTEAVAQGLVDATAAGAFTIVGGGDSASAVRNLGFPEDGFSHISTGGGASLEFLEGKELPGLKVLD
modifications: Phosphoglycerate kinase
notes: as for B4
immune cross-reaction with anti-oxytocin antibodies (anti-oxytocin antibodies): immune cross-react with anti-oxytocin antibodies

B6: Enolase 1 (protein, listed as Lactobacillus gasseri)
chain: MLKSVIENVHALEIFDSRGNPTVEVFVTLSNGVVGKAEVPSGASTGENEAVELRDGGSRLGGKGVMNAVNNVNTEINDALKGLDPHDQPNIDATMIALDGTPNKGRLGANAILGVSMATACAAAKDNHQPLYRYLGGTDLEMPQTFHNVINGGEHADNGIDIQEFMITPVAKTSFRDGFEKIVNVYHTLKKVLEDMGYETGLGDEGGFAPNMKNSEEALKALHESIIKAGYKPGEDIAIACDCAASYFYNKEDGKYHLEGKVLTDEELADYYDKLLDEFPELISMEDPYDENDVEGMVKFTESHKDRIQIVLDDFICTNPKLLNKAIHEGAGNASLIKLNQIGTVTETLETIRLSRKNGYNTMISHRSGETGDTFIADFAVAVNGGQLKSGAPARSERVEKYNRLLEIEEELGKGERLAFFPDNVDLD
modifications: enolase1
notes: protein expressed by Lactobacillus gasseri
immune cross-reaction with anti-oxytocin antibodies (anti-oxytocin antibodies): immune cross-react with anti-oxytocin antibodies
